Experimental data published in patent US20140193415A1 (Hoffmann-La Roche, published 2014).

The binders below were run against human EGFR on human tumor cells (A549, BxPC3) (human, UniProt P00533 25-1200) (assay: cell-based or functional assay).

| Binder | Inhibition of EGFR phosphorylation (IC50) A549 | Inhibition of EGFR phosphorylation (IC50) BxPC3 |
| --- | --- | --- |
| OA-Ak18-scFab-GA201 (bispecific antibody, V domains shown) VH 1: QVELVESGGGVVQPGRSQRLSCAASGFTFSSYGMHWVRQAPGKGLEWVAIIWFDGSSTYYADSVRGRFTISRDNSKNTLYLQMNSLRAEDTAVYFCARELGRRYFDLWGRGTLVSVSS VL 1: EIVLTQSPATLSLSPGERATLSCRASQSVSSYLAWYQQKPGQAPRLLIYDASKRATGIPARFSGSGSGTDFTLTISSLEPEDFAVYYCQQRSKWPPWTFGQGTKVESK VH 2: QVQLVQSGAEVKKPGSSVKVSCKASGFTFTDYKIHWVRQAPGQGLEWMGYFNPNSGYSTYAQKFQGRVTITADKSTSTAYMELSSLRSEDTAVYYCARLSPGGYYVMDAWGQGTTVTVSS VL 2: DIQMTQSPSSLSASVGDRVTITCRASQGINNYLNWYQQKPGKAPKRLIYNTNNLQTGVPSRFSGSGSGTEFTLTISSLQPEDFATYYCLQHNSFPTFGQGTKLEIKRT | 0.23 nM | 1.67 nM |
| OA-F13B5-scFab-GA201 (bispecific antibody, human IgG1, kappa) heavy 1: not shown heavy 2: not shown light: DIQMTQSPSSLSASVGDRVTITCRASQGINNYLNWYQQKPGKAPKRLIYNTNNLQTGVPSRFSGSGSGTEFTLTISSLQPEDFATYYCLQHNSFPTFGQGTKLEIKRTVAAPSVFIFPPSDEQLKSGTASVVCLLNNFYPREAKVQWKVDNALQSGNSQESVTEQDSKDSTYSLSSTLTLSKADYEKHKVYACEVTHQGLSSPVTKSFNRGEC | 0.23 nM | 0.82 nM |
| OA-L31D11-scFab-GA201 (bispecific antibody, human IgG1, kappa) heavy 1: not shown heavy 2: not shown light: DIQMTQSPSSLSASVGDRVTITCRASQGINNYLNWYQQKPGKAPKRLIYNTNNLQTGVPSRFSGSGSGTEFTLTISSLQPEDFATYYCLQHNSFPTFGQGTKLEIKRTVAAPSVFIFPPSDEQLKSGTASVVCLLNNFYPREAKVQWKVDNALQSGNSQESVTEQDSKDSTYSLSSTLTLSKADYEKHKVYACEVTHQGLSSPVTKSFNRGEC | 0.19 nM | 0.47 nM |
